{"source": "the supplement of paper PMC12042874", "note": "± gives the uncertainty stated by the source."}
{"test": "amyloid nucleation score (Sup35N fusion, yeast selection) (log enrichment); library NNK3; higher = more nucleation; inactive = no reads after selection", "procedure,_shortened": "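Yeast lacking psi expressed peptides of 20 random codons fused to Sup35N, received 100 μM copper sulfate for 24 hours, and were then grown for 7 days at 30°C on medium lacking adenine and uracil. Illumina sequencing of input and output plasmid inserts provided the reads. Nucleation scores are DiMSum log enrichments of output over input, centred on the mode of non-aggregating sequences. Any sequence with under 100 input reads was excluded.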"}
{"substance": "VGFCNGIGVVMGRPAKCSWR", "amyloid nucleation score": "-0.06 ± 1.1"}
{"substance": "TYSRFEISCMCWASYTIK", "amyloid nucleation score": "0.775 ± 0.22"}
{"substance": "TARYIW", "amyloid nucleation score": "inactive"}
{"substance": "SRFLRMASGYWSN", "amyloid nucleation score": "inactive"}
{"substance": "GNASMLWDNMSVVFLRGTLY", "amyloid nucleation score": "1.53 ± 0.074"}
{"substance": "GTFLIFDKFKLS", "amyloid nucleation score": "inactive"}
{"substance": "NYFCDIFNLSVNSILNYY", "amyloid nucleation score": "0.68 ± 0.19"}
{"substance": "IVWPIIRAHS", "amyloid nucleation score": "-0.313 ± 0.93"}
{"substance": "VSFLMIYLSSNCSVSVRYHY", "amyloid nucleation score": "inactive"}
{"substance": "IYSALYLYRTPKSVYQVTQS", "amyloid nucleation score": "-0.575 ± 1"}
{"substance": "GFRYLRTDNYMPCRGESVGW", "amyloid nucleation score": "inactive"}
{"substance": "RKIETLWVYIYRLFRLGEQV", "amyloid nucleation score": "inactive"}
{"substance": "SSYLNSVNSCLNDNVSHCCS", "amyloid nucleation score": "-0.343 ± 0.68"}
{"substance": "SNRQSSGISF", "amyloid nucleation score": "-0.784 ± 2.5"}
{"substance": "ATDCLCEQRPVFPNKVKWQS", "amyloid nucleation score": "inactive"}
{"substance": "YSHNLWLA", "amyloid nucleation score": "inactive"}
{"substance": "TPMIVPLMNSQVVYTLFTTK", "amyloid nucleation score": "2.11 ± 0.076"}
{"substance": "LNFMWRGMY", "amyloid nucleation score": "-0.135 ± 0.62"}
{"substance": "GPTNGFMSLNNWYQPLDQPV", "amyloid nucleation score": "inactive"}
{"substance": "LFTLKLTVSKMKLWLLYGCS", "amyloid nucleation score": "inactive"}
{"substance": "YVYRSRFKQDLRGFLFNFTY", "amyloid nucleation score": "inactive"}
{"substance": "EAPFDHPLYLRDLY", "amyloid nucleation score": "inactive"}
{"substance": "RLFYTRIDSTCIWLVLYAEK", "amyloid nucleation score": "inactive"}
{"substance": "RGKSLFLINTDM", "amyloid nucleation score": "-0.148 ± 0.7"}
{"substance": "VYVHLRNLQSL", "amyloid nucleation score": "inactive"}
{"substance": "HRGIVGCLAYMHMNRIVATT", "amyloid nucleation score": "inactive"}
{"substance": "CLGPKCATKDIFL", "amyloid nucleation score": "inactive"}
{"substance": "SHYFK", "amyloid nucleation score": "inactive"}
{"substance": "SLSSIGSDFNGGC", "amyloid nucleation score": "inactive"}
{"substance": "GFYTVFCIMQSAEGLDGTVW", "amyloid nucleation score": "1.26 ± 0.12"}
{"substance": "LVWVKLAANAFVV", "amyloid nucleation score": "1.4 ± 0.074"}
{"substance": "ELSSLSFHIHNMEFREKVKG", "amyloid nucleation score": "inactive"}
{"substance": "FTDLTVNPNYNFYMCSLNRL", "amyloid nucleation score": "2.72 ± 0.054"}
{"substance": "VDSWSRGQVSQLGRSQWADI", "amyloid nucleation score": "0.68 ± 0.31"}
{"substance": "KYSYFFVRKTMLDCSFTEAW", "amyloid nucleation score": "0.771 ± 0.19"}
{"substance": "MGMVFHME", "amyloid nucleation score": "inactive"}
{"substance": "ISGHGMKAVMSVDHSLY", "amyloid nucleation score": "inactive"}
{"substance": "SVDSREMHSVCCKSLLFGFD", "amyloid nucleation score": "inactive"}
{"substance": "VGAKRFPYVYWAYGSYVFAD", "amyloid nucleation score": "inactive"}
{"substance": "LSCCSSGGGSTPVIAPTYYE", "amyloid nucleation score": "inactive"}
{"substance": "ALRRVMVICLFKLDSEAHST", "amyloid nucleation score": "inactive"}
{"substance": "SIDGMWTMYRRSVKYGDQFH", "amyloid nucleation score": "inactive"}
{"substance": "WYSTEM", "amyloid nucleation score": "inactive"}
{"substance": "CVNTIFTRRFWNEGSIPAGL", "amyloid nucleation score": "inactive"}
{"substance": "RTKYSQYHTGVSFDGSMHYS", "amyloid nucleation score": "inactive"}
{"substance": "GQDEPDCVG", "amyloid nucleation score": "0.014 ± 0.52"}
{"substance": "IMKTYLLMLSFFRNPPMVVL", "amyloid nucleation score": "inactive"}
{"substance": "HVILICLSFYTKFICPIPEV", "amyloid nucleation score": "inactive"}
{"substance": "RWSHDMSCE", "amyloid nucleation score": "inactive"}
{"substance": "VVHKNRLMKFHRFLILYSEG", "amyloid nucleation score": "inactive"}
{"substance": "CRSEYYAF", "amyloid nucleation score": "inactive"}
{"substance": "KCRVG", "amyloid nucleation score": "inactive"}
{"substance": "FLDQLSVHMQCISLEFNFGV", "amyloid nucleation score": "2.42 ± 0.068"}
{"substance": "CSSKKRDV", "amyloid nucleation score": "inactive"}
{"substance": "GWKAPLTLRRTLSALDFVLY", "amyloid nucleation score": "0.371 ± 0.38"}
{"substance": "YRYVCWFTTILTYTNGRFSS", "amyloid nucleation score": "inactive"}
{"substance": "VTFYFSYMCAKGTH", "amyloid nucleation score": "0.53 ± 0.17"}
{"substance": "WFCVLMDSAWDCRVIGGGGR", "amyloid nucleation score": "1.1 ± 0.13"}
{"substance": "ALMCIHRLCPNIVPDQ", "amyloid nucleation score": "inactive"}
{"substance": "YCLTLNHAMIRFGMCCHYMC", "amyloid nucleation score": "inactive"}
{"substance": "TDNAVMGSHCI", "amyloid nucleation score": "inactive"}
{"substance": "KLWKWNTGNSVVVLGLMSGV", "amyloid nucleation score": "inactive"}
{"substance": "EYYLDMDLMFMMG", "amyloid nucleation score": "inactive"}
{"substance": "ETRMGTK", "amyloid nucleation score": "inactive"}
{"substance": "LGVFSRRACYLFRICLTELI", "amyloid nucleation score": "inactive"}
{"substance": "MMLFNVPKICHRLWLNLHRH", "amyloid nucleation score": "inactive"}
{"substance": "YLLVFCSNF", "amyloid nucleation score": "2.29 ± 0.091"}
{"substance": "YPPWWFYIRNWLISEEE", "amyloid nucleation score": "inactive"}
{"substance": "LWLIPC", "amyloid nucleation score": "inactive"}
{"substance": "TVHNKMPHRLWNCTTLE", "amyloid nucleation score": "inactive"}
{"substance": "YHCWSDLDKSLELLSQLMFR", "amyloid nucleation score": "inactive"}
{"substance": "FYELEIV", "amyloid nucleation score": "inactive"}
{"substance": "PVWLCSLPR", "amyloid nucleation score": "inactive"}
{"substance": "GRCSQGSLGSAG", "amyloid nucleation score": "inactive"}
{"substance": "IEGSKSDNIGIVHDFMFES", "amyloid nucleation score": "inactive"}
{"substance": "SSLRLRDMSASENNRGSMPV", "amyloid nucleation score": "inactive"}
{"substance": "LLLSSILRYS", "amyloid nucleation score": "inactive"}
{"substance": "PCRMKLVFFRDE", "amyloid nucleation score": "inactive"}
{"substance": "FRVTMMSACRLDSIGLDCSC", "amyloid nucleation score": "1.25 ± 0.086"}
{"substance": "PDYGMSLCHLPTWMW", "amyloid nucleation score": "inactive"}
{"substance": "LLFSLHCCCKSTYFFKSFLN", "amyloid nucleation score": "inactive"}
{"substance": "LSLSM", "amyloid nucleation score": "inactive"}
{"substance": "GFKVVYKIWLPASRSACDPW", "amyloid nucleation score": "1.31 ± 0.13"}
{"substance": "SRCSSGRLCWRFASHSRGTS", "amyloid nucleation score": "-0.826 ± 1.4"}
{"substance": "RYYDLVSLVQARDEVCTIHD", "amyloid nucleation score": "inactive"}
{"substance": "LAFCIMNRQFLPLYLPTCSV", "amyloid nucleation score": "inactive"}
{"substance": "QLGFWKELSSSHS", "amyloid nucleation score": "inactive"}
{"substance": "AASPQARGCILSCNVSRNQT", "amyloid nucleation score": "inactive"}
{"substance": "RLGNTGMCV", "amyloid nucleation score": "inactive"}
{"substance": "SWIRRRPAVRLDRRMPRLAF", "amyloid nucleation score": "inactive"}
{"substance": "VGNFTWICKI", "amyloid nucleation score": "2.48 ± 0.056"}
{"substance": "TWFYQ", "amyloid nucleation score": "inactive"}
{"substance": "MSDWLDELVGSPMSKREVCR", "amyloid nucleation score": "inactive"}
{"substance": "GTIHLFYVFLLS", "amyloid nucleation score": "0.205 ± 0.38"}
{"substance": "FSCVGGGSSNIWREVTDTCS", "amyloid nucleation score": "inactive"}
{"substance": "SHSNKSMRVNALSKWLY", "amyloid nucleation score": "inactive"}
{"substance": "YYSFKIDRLRFVRM", "amyloid nucleation score": "inactive"}
{"substance": "NCCCLYP", "amyloid nucleation score": "1.71 ± 0.091"}
{"substance": "VWYDRSEGLARAHNLYSGSE", "amyloid nucleation score": "inactive"}
{"substance": "LSSGG", "amyloid nucleation score": "0.088 ± 0.4"}
{"substance": "FVKLIYWLGAWVSTLCG", "amyloid nucleation score": "inactive"}
{"substance": "VMHNVM", "amyloid nucleation score": "inactive"}
{"substance": "GERFAVTSVSDHVTDKKTLS", "amyloid nucleation score": "1.77 ± 0.093"}
{"substance": "YIFFWKRTFLP", "amyloid nucleation score": "inactive"}
{"substance": "FVIGRI", "amyloid nucleation score": "inactive"}
{"substance": "KHVMLCCNFRKLHSATHKRT", "amyloid nucleation score": "inactive"}
{"substance": "AFSIYHRIIIMRFRKYNIFA", "amyloid nucleation score": "inactive"}
{"substance": "TQLHGDLYWLVRMRVWIVEI", "amyloid nucleation score": "inactive"}
{"substance": "VEMATKLQVKVIERALNEGD", "amyloid nucleation score": "inactive"}
{"substance": "LVESDLYVCTTVRGQVSMKG", "amyloid nucleation score": "inactive"}
{"substance": "LSCWNIRGWLRWS", "amyloid nucleation score": "inactive"}
{"substance": "TRVLSTSGFNQRPNCWFSTM", "amyloid nucleation score": "inactive"}
{"substance": "FLQSGN", "amyloid nucleation score": "inactive"}
{"substance": "FFFKSLEVSVTQR", "amyloid nucleation score": "inactive"}
{"substance": "ERHDGCFQ", "amyloid nucleation score": "inactive"}
{"substance": "WNDRKSYLYSAIAMKARSVY", "amyloid nucleation score": "inactive"}
{"substance": "SGLKMCYLSTGEKSAHAGEV", "amyloid nucleation score": "inactive"}
{"substance": "LFATAEPMLRWVRSRLV", "amyloid nucleation score": "inactive"}
{"substance": "MIKPIIHFSGG", "amyloid nucleation score": "inactive"}
{"substance": "PINWECWDQELEGLHDMQAI", "amyloid nucleation score": "inactive"}
{"substance": "MVKGGKDHSSVGPC", "amyloid nucleation score": "inactive"}
